Measurements as given in US10604566B2, “Antagonists of IL-17C for the treatment and/or prevention of atopic dermatitis” (MORPHOSYS AG, priority 2015, dated 2020).

Columns and labels:
human IL-17C = molecular target: T1, human IL-17C (Homo sapiens, UniProt Q9P0M4); experiment: Binding to human IL-17C and inhibition of IL-17C binding to IL-17RE
T1 sequence (Q9P0M4 19-197): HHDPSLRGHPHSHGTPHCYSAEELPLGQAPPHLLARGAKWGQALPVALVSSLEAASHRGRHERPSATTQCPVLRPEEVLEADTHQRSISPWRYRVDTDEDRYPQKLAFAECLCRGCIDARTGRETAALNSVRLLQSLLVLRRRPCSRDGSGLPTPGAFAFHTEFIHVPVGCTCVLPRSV
Procedure: (§1) The following working examples were performed using the antibodies MOR12743 and MOR22420 (see Table 1). […] Therefore both antibodies are antagonists of IL-17C in the sense of the present disclosure. MOR12743 is already disclosed and characterized in WO 2013/057241 (U.S. Ser. No. 14/351,162), which is incorporated by reference in its entirety.

MC903-treated mice = experiment: MC903 mouse model of atopic dermatitis; assay type: in vivo, BALB/c mice; conditions: 3x10 mg/kg i.p.
Description: The pro-inflammatory function of IL-17C in atopic dermatitis was examined in a non-infectious cutaneous inflammation mouse model of atopic dermatitis where topical application of the low-calcemic vitamin D3 analogue MC903 (calcipotriol) induces atopic dermatitis like skin lesion characterized by a red and scaly skin, accompanied by an epidermal hyperplasia and dermal infiltration of various cell types as well as an increase of Th2 cytokine in skin and elevated serum IgE (Li et al., 2006; Li et al, 2009). The MC903 mouse model is a widely accepted and predictable model to mimic the Th2 driven symptoms of atopic dermatitis in vivo.
BALB/c mice (female, 8-week old) were obtained from Janvier Labs (France). Mice were kept on a 12 hours light/dark cycle (0700-1900). Temperature was maintained at 22° C., and food and water were provided ad libitum.
In order to induce an AD-like response, 2 nmol MC903 (Tocris, dissolved in ethanol) was topical applied in a volume of 20 μL on both ears of mice for 5 consecutive days. A non-disease control group received the same quantity of ethanol (EtOH).
The severity of skin inflammation (erythema and thickening) was observed daily. Ear thickness was measured with an electronic caliper (Mitutoyo). Inflammation was further assessed using an in vivo imaging technique. To that end, Prosense 680 probe (1.6 nmol, Perkin Elmer) was administered by intraperitoneal route 24 hours before imaging. Imaging was performed with the Bruker In-vivo Xtreme Imaging System. Images were captured by a deeply cooled 4MP CCD camera (f-stop 1.1, binning 2×2, 5 sec acquisition time, Ex 630 nm, Em 700 nm). For anatomical co-registration, a reflectance image was taken (f-stop 2.8, 0.175 sec acquisition time). All images were taken with a 190×190 field of view and images were analysed using Molecular Imaging Software version 7.1 (Bruker Biospin, Billerica, Mass., USA). For each group, the mean values and standard error of mean (sem) was calculated using for each mouse the mean value of left and right ear.
At sacrifice, samples form ear skin were collected and fixed in 4% formaldehyde before embedding in paraffin. 4 μm-thick slices were stained with hematoxylin and eosin (H&E stain) for histomorphometric evaluation of epidermal thickness by image analysis with Sisn'Com software (France). Five fields per ear (high power field ×20) covering the whole ear from top to bottom were measured, and the 5 values were averaged per ear and per mice (left/right ear). An additional set of tissue slices were prepared for IHC staining of IL-17C using the anti-IL-17C biotinylated MOR12743 antibody (and biotinylated MOR03207 isotype negative control antibody). Processing and staining was essentially done as described above.
Ear skin samples were also taken for analysis of cytokine expression using qPCR or ELISA. […] Ear skin sam pies for quantification at protein level were immediately snap frozen in liquid N2 and stored at −80° C. […] 5 μL of 10-fold diluted cDNA was used in real-time quantitative PCR reactions using SYBR Green technology with gene-specific primers from Qiagen. qPCR was performed on the ViiA™ 7 Real-Time PCR System (Applied Biosystems). Gene expression was normalized to the expression of 3 different house-keeping genes (cyclophilin, b-actin and GAPDH) and expressed as relative mRNA level of specific gene expression as obtained using the 2^−ΔCt method, with ΔCt=Ctgene−Geomean Ct-value (housekeeping genes). […]

murine IL-17C = molecular target: T2, murine IL-17C (Mus musculus, UniProt Q8K4C5); experiment: Binding to murine IL-17C and inhibition of IL-17C binding to IL-17RE
T2 sequence (Q8K4C5 17-194): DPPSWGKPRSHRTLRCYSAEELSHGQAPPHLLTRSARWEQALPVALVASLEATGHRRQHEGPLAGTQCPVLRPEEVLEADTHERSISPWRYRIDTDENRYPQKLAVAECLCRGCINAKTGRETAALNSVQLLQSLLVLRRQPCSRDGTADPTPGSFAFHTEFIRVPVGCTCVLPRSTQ
Procedure: as §1

B1: MOR22420: anti-IL-17C antibody, binds human IL-17C; VH SEQ ID No.: 21, VL SEQ ID No.: 20 (antibody, V domains shown)
VH: QVQLVQSGAEVKKPGSSVKVSCKASGGTFSSYAISWVRQAPGQGLEWMGTIDPFFGKTYYAQKFQGRVTITADESTSTAYMELSSLRSEDTAVYYCARDVSSISYYFHEYYSDRFDYWGQGTLVTVSS
VL: DIALTQPASVSGSPGQSITISCTGTSSDVGGYEYVNWYQQHPGKAPKLMIYDDSYRPSGVSNRFSGSKSGNTASLTISGLQAEDEADYYCQSTDPHSTVVFGGGTKLTVLGQ
modifications: mab Library
- inhibition of binding of IL-17C to its receptor IL-17RE (human IL-17C): inhibit binding of IL-17C to its receptor IL-17RE
- specific binding to IL-17C (human IL-17C): specifically bind

B2: MOR12743: anti-IL-17C antibody, binds murine IL-17C; VH SEQ ID No.: 11, VL SEQ ID No.: 10; disclosed in WO 2013/057241 (antibody, V domains shown)
VH: QVQLVQSGAEVKKPGASVKVSCKASGYTFTSNFIHWVRQAPGQGLEWMGWISPYNGDTNYAQKFQGRVTMTRDTSISTAYMELSRLRSEDTAVYYCARESVYYGSDYGYNGMDIWGQGTLVTVSS
VL: DIELTQPPSVSVSPGQTASITCSGDNLGEEYVSWYQQKPGQAPVLVIYDDTKRPSGIPERFSGSNSGNTATLTISGTQAEDEADYYCASWDLWSVEVFGGGTKLTVLGQ
modifications: mab Library
- ear inflammation as assessed by in vivo imaging (MC903-treated mice; day 5, Prosense 680 probe, FIG. 6): significantly reduced
- ear redness (MC903-treated mice; day 8, vs MC903+MOR03207 isotype control): less red
- ear swelling (ear thickness) (MC903-treated mice; day 8, vs MC903+MOR03207 isotype control, FIG. 5): significantly less swollen
- epidermal hyperplasia (epidermal thickness) (MC903-treated mice; histology H&E at sacrifice, FIG. 7): partially reduced
- TSLP expression in ears (MC903-treated mice; protein, ELISA, FIG. 8): significantly inhibited
- inhibition of binding of IL-17C to its receptor IL-17RE (murine IL-17C): inhibit binding of IL-17C to its receptor IL-17RE
- specific binding to IL-17C (murine IL-17C): specifically bind
